In IntAct's records for PubMed 15208391:

B1: Cullin-1 (Arabidopsis thaliana (Mouse-ear cress)), Q94AH6 (parent)
chain: MERKTIDLEQGWDYMQTGITKLKRILEGLNEPAFDSEQYMMLYTTIYNMCTQKPPHDYSQQLYDKYREAFEEYINSTVLPALREKHDEFMLRELFKRWSNHKVMVRWLSRFFYYLDRYFIARRSLPPLNEVGLTCFRDLVYNELHSKVKQAVIALVDKEREGEQIDRALLKNVLDIYVEIGMGQMERYEEDFESFMLQDTSSYYSRKASSWIQEDSCPDYMLKSEECLKKERERVAHYLHSSSEPKLVEKVQHELLVVFASQLLEKEHSGCRALLRDDKVDDLSRMYRLYHKILRGLEPVANIFKQHVTAEGNALVQQAEDTATNQVANTASVQEQVLIRKVIELHDKYMVYVTECFQNHTLFHKALKEAFEIFCNKTVAGSSSAELLATFCDNILKKGGSEKLSDEAIEDTLEKVVKLLAYISDKDLFAEFYRKKLARRLLFDRSANDDHERSILTKLKQQCGGQFTSKMEGMVTDLTLARENQNSFEDYLGSNPAANPGIDLTVTVLTTGFWPSYKSFDINLPSEMIKCVEVFKGFYETKTKHRKLTWIYSLGTCHINGKFDQKAIELIVSTYQAAVLLLFNTTDKLSYTEILAQLNLSHEDLVRLLHSLSCAKYKILLKEPNTKTVSQNDAFEFNSKFTDRMRRIKIPLPPVDERKKVVEDVDKDRRYAIDAAIVRIMKSRKVLGHQQLVSECVEQLSRMFKPDIKAIKKRMEDLITRDYLERDKENPNMFRYLA
partner: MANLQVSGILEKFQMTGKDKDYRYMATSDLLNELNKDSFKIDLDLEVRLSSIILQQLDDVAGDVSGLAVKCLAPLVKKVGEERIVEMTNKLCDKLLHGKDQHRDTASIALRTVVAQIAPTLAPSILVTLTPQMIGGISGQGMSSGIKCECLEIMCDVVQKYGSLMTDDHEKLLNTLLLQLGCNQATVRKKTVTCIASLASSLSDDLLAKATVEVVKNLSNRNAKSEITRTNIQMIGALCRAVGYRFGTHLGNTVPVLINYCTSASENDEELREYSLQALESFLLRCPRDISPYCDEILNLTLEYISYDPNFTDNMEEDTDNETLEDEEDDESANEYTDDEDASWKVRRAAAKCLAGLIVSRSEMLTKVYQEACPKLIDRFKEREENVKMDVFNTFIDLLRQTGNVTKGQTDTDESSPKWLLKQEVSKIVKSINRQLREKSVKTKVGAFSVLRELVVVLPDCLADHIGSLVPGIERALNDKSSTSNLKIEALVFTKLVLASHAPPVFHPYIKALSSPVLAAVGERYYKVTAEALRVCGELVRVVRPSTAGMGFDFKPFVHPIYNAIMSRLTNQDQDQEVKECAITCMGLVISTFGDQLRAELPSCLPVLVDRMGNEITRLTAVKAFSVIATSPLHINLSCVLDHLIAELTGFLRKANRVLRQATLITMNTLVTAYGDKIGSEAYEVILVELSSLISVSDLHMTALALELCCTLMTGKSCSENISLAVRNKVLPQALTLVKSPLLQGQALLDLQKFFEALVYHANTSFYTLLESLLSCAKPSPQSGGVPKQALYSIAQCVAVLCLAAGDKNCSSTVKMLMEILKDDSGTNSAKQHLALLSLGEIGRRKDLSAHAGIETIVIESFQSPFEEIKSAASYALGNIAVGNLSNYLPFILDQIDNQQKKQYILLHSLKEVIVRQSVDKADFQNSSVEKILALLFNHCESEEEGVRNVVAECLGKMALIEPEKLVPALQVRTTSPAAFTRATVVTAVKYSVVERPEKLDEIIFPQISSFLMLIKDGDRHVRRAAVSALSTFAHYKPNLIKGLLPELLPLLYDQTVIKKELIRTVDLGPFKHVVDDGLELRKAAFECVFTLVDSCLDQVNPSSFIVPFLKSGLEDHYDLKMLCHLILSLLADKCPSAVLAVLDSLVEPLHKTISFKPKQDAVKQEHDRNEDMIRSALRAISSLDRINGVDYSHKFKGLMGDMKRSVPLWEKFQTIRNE

Variants of: B1
Conditions: with cand1_arath CAND1, Q8L5Y6

Row | Variant | effect of a mutation on the interaction
1 | K682R | increasing interaction strength
